Data from the supplement of paper PMC9112550, “Optimization of the antimicrobial peptide Bac7 by deep mutational scanning” (BMC Biology, 2022).

Test system: Escherichia coli TOP10
Experiment: shrunken log2 fold change of peptide-encoding DNA abundance (4.5 h post-induction vs induction); higher = less antimicrobial activity (less host growth inhibition)
Conditions: time post-induction: 4.5 h; library: site-saturation at positions 5, 18, 19, 20
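Further: peptides expressed intracellularly from a pBAD plasmid library in pooled LB shake-flask culture, induced with 0.3% L-arabinose, DNA abundance read by NGS, three biological replicates, DESeq2 with apeglm shrinkage.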

Sequence	shrunken log2 fold change
RRIRQRPPRLPRPRPRPDQSPRP	-0.222
RRIRQRPPRLPRPRPRPDVIPRP	-0.011
RRIRQRPPRLPRPRPRPDWAPRP	-0.012
RRIRQRPPRLPRPRPRPDWEPRP	0.0238
RRIRQRPPRLPRPRPRPECTPRP	0.0484
RRIRQRPPRLPRPRPRPECVPRP	0.386
RRIRQRPPRLPRPRPRPEDFPRP	-0.0175
RRIRQRPPRLPRPRPRPEECPRP	-0.0135
RRIRQRPPRLPRPRPRPEEFPRP	-0.0679
RRIRQRPPRLPRPRPRPEEHPRP	-0.0135
RRIRQRPPRLPRPRPRPEGHPRP	0.00489
RRIRQRPPRLPRPRPRPEGRPRP	0.00666
RRIRQRPPRLPRPRPRPEHCPRP	-0.199
RRIRQRPPRLPRPRPRPEHQPRP	-0.0955
RRIRQRPPRLPRPRPRPEKYPRP	-0.304
RRIRQRPPRLPRPRPRPELHPRP	0.0795
RRIRQRPPRLPRPRPRPELNPRP	0.0915
RRIRQRPPRLPRPRPRPEMAPRP	-0.0608
RRIRQRPPRLPRPRPRPEMPPRP	0.188
RRIRQRPPRLPRPRPRPENTPRP	-0.387
RRIRQRPPRLPRPRPRPENWPRP	0.284
RRIRQRPPRLPRPRPRPEPFPRP	-0.00936
RRIRQRPPRLPRPRPRPEPVPRP	0.0323
RRIRQRPPRLPRPRPRPEQPPRP	0.393
RRIRQRPPRLPRPRPRPESPPRP	0.0606

Sequence	shrunken log2 fold change
RRIRQRPPRLPRPRPRPETSPRP	-0.192
RRIRQRPPRLPRPRPRPEVCPRP	0.134
RRIRQRPPRLPRPRPRPEVFPRP	0.0304
RRIRQRPPRLPRPRPRPEWKPRP	-0.00192
RRIRQRPPRLPRPRPRPEYQPRP	0.00438
RRIRQRPPRLPRPRPRPFDQPRP	-0.0498
RRIRQRPPRLPRPRPRPFDVPRP	0.028
RRIRQRPPRLPRPRPRPFFIPRP	-0.365
RRIRQRPPRLPRPRPRPFGSPRP	-0.156
RRIRQRPPRLPRPRPRPFHHPRP	-0.0143
RRIRQRPPRLPRPRPRPFILPRP	-0.635
RRIRQRPPRLPRPRPRPFIVPRP	-0.136
RRIRQRPPRLPRPRPRPFKFPRP	-0.00873
RRIRQRPPRLPRPRPRPFKLPRP	-0.152
RRIRQRPPRLPRPRPRPFKTPRP	-0.0381
RRIRQRPPRLPRPRPRPFKVPRP	-0.00664
RRIRQRPPRLPRPRPRPFLMPRP	-0.421
RRIRQRPPRLPRPRPRPFMMPRP	-0.25
RRIRQRPPRLPRPRPRPFMYPRP	0.000979
RRIRQRPPRLPRPRPRPFNYPRP	-0.304
RRIRQRPPRLPRPRPRPFPEPRP	-0.0157
RRIRQRPPRLPRPRPRPFQSPRP	-0.0102
RRIRQRPPRLPRPRPRPFSAPRP	-0.0161
RRIRQRPPRLPRPRPRPFWDPRP	0.213
RRIRQRPPRLPRPRPRPFYTPRP	-0.589

Sequence	shrunken log2 fold change
RRIRQRPPRLPRPRPRPGAWPRP	0.256
RRIRQRPPRLPRPRPRPGCGPRP	0.442
RRIRQRPPRLPRPRPRPGCWPRP	0.548
RRIRQRPPRLPRPRPRPGDIPRP	-0.0112
RRIRQRPPRLPRPRPRPGDPPRP	0.0572
RRIRQRPPRLPRPRPRPGDQPRP	-0.0566
RRIRQRPPRLPRPRPRPGDVPRP	-0.222
RRIRQRPPRLPRPRPRPGECPRP	-0.0823
RRIRQRPPRLPRPRPRPGEVPRP	-0.102
RRIRQRPPRLPRPRPRPGFPPRP	-0.0539
RRIRQRPPRLPRPRPRPGFWPRP	0.353
RRIRQRPPRLPRPRPRPGGHPRP	0.201
RRIRQRPPRLPRPRPRPGGIPRP	0.0484
RRIRQRPPRLPRPRPRPGGYPRP	0.144
RRIRQRPPRLPRPRPRPGHTPRP	0.0169
RRIRQRPPRLPRPRPRPGIGPRP	-0.005
RRIRQRPPRLPRPRPRPGIKPRP	-1.89e-05
RRIRQRPPRLPRPRPRPGKMPRP	0.0812
RRIRQRPPRLPRPRPRPGMDPRP	0.342
RRIRQRPPRLPRPRPRPGMNPRP	0.0205
RRIRQRPPRLPRPRPRPGNPPRP	-0.132
RRIRQRPPRLPRPRPRPGNRPRP	-0.0286
RRIRQRPPRLPRPRPRPGPCPRP	-0.0469
RRIRQRPPRLPRPRPRPGQIPRP	-0.226
RRIRQRPPRLPRPRPRPGSEPRP	0.0985

Sequence	shrunken log2 fold change
RRIRQRPPRLPRPRPRPGSLPRP	0.143
RRIRQRPPRLPRPRPRPGTFPRP	-0.499
RRIRQRPPRLPRPRPRPGTMPRP	0.00897
RRIRQRPPRLPRPRPRPGVCPRP	-0.126
RRIRQRPPRLPRPRPRPGVMPRP	-0.0819
RRIRQRPPRLPRPRPRPGWLPRP	0.193
RRIRQRPPRLPRPRPRPHAEPRP	-0.0176
RRIRQRPPRLPRPRPRPHAHPRP	0.000761
RRIRQRPPRLPRPRPRPHCAPRP	0.0396
RRIRQRPPRLPRPRPRPHCRPRP	0.0105
RRIRQRPPRLPRPRPRPHDLPRP	-0.046
RRIRQRPPRLPRPRPRPHHDPRP	-0.000328
RRIRQRPPRLPRPRPRPHIDPRP	-0.224
RRIRQRPPRLPRPRPRPHIMPRP	-0.669
RRIRQRPPRLPRPRPRPHIYPRP	-0.0139
RRIRQRPPRLPRPRPRPHKCPRP	-0.364
RRIRQRPPRLPRPRPRPHKVPRP	-0.481
RRIRQRPPRLPRPRPRPHLCPRP	0.0292
RRIRQRPPRLPRPRPRPHLGPRP	-0.00552
RRIRQRPPRLPRPRPRPHLHPRP	-0.177
RRIRQRPPRLPRPRPRPHLWPRP	0.0824
RRIRQRPPRLPRPRPRPHLYPRP	-0.129
RRIRQRPPRLPRPRPRPHMWPRP	-0.129
RRIRQRPPRLPRPRPRPHNCPRP	0.113
RRIRQRPPRLPRPRPRPHNWPRP	-0.311

Sequence	shrunken log2 fold change
RRIRQRPPRLPRPRPRPHPLPRP	-0.0478
RRIRQRPPRLPRPRPRPHQGPRP	0.0866
RRIRQRPPRLPRPRPRPHQVPRP	-0.253
RRIRQRPPRLPRPRPRPHRAPRP	-0.137
RRIRQRPPRLPRPRPRPHRWPRP	0.057
RRIRQRPPRLPRPRPRPHSQPRP	0.0419
RRIRQRPPRLPRPRPRPHTSPRP	0.0894
RRIRQRPPRLPRPRPRPHVEPRP	-0.00703
RRIRQRPPRLPRPRPRPHVMPRP	-0.444
RRIRQRPPRLPRPRPRPHYDPRP	-0.295
RRIRQRPPRLPRPRPRPHYSPRP	-0.0998
RRIRQRPPRLPRPRPRPIAVPRP	-0.038
RRIRQRPPRLPRPRPRPIDFPRP	-0.0381
RRIRQRPPRLPRPRPRPIDNPRP	-0.36
RRIRQRPPRLPRPRPRPIDTPRP	-0.216
RRIRQRPPRLPRPRPRPIEGPRP	0.0763
RRIRQRPPRLPRPRPRPIESPRP	-0.181
RRIRQRPPRLPRPRPRPIFAPRP	0.146
RRIRQRPPRLPRPRPRPIFDPRP	-0.0877
RRIRQRPPRLPRPRPRPIGFPRP	-0.0702
RRIRQRPPRLPRPRPRPIGNPRP	0.0843
RRIRQRPPRLPRPRPRPIGWPRP	0.256
RRIRQRPPRLPRPRPRPIIKPRP	-0.111
RRIRQRPPRLPRPRPRPILEPRP	-0.536
RRIRQRPPRLPRPRPRPIPSPRP	-0.0138

Sequence	shrunken log2 fold change
RRIRQRPPRLPRPRPRPIQKPRP	-0.0187
RRIRQRPPRLPRPRPRPIQLPRP	-0.333
RRIRQRPPRLPRPRPRPIVIPRP	0.0668
RRIRQRPPRLPRPRPRPIWIPRP	-0.206
RRIRQRPPRLPRPRPRPIWWPRP	0.127
RRIRQRPPRLPRPRPRPIYCPRP	-0.0315
RRIRQRPPRLPRPRPRPKAGPRP	0.0875
RRIRQRPPRLPRPRPRPKAVPRP	-0.00151
RRIRQRPPRLPRPRPRPKCEPRP	0.0276
RRIRQRPPRLPRPRPRPKCMPRP	-0.551
RRIRQRPPRLPRPRPRPKCQPRP	0.0473
RRIRQRPPRLPRPRPRPKDTPRP	-0.0272
RRIRQRPPRLPRPRPRPKECPRP	-0.0193
RRIRQRPPRLPRPRPRPKGCPRP	-0.0208
RRIRQRPPRLPRPRPRPKHYPRP	-0.223
RRIRQRPPRLPRPRPRPKIYPRP	-0.277
RRIRQRPPRLPRPRPRPKKHPRP	-0.236
RRIRQRPPRLPRPRPRPKKPPRP	0.0619
RRIRQRPPRLPRPRPRPKKSPRP	-0.197
RRIRQRPPRLPRPRPRPKLDPRP	0.168
RRIRQRPPRLPRPRPRPKLKPRP	-0.0236
RRIRQRPPRLPRPRPRPKLRPRP	-0.0665
RRIRQRPPRLPRPRPRPKMPPRP	-0.0283
RRIRQRPPRLPRPRPRPKMWPRP	1
RRIRQRPPRLPRPRPRPKPCPRP	-0.273
